In paper PMC8928417:

Molecular target: biotinylated histone H3 peptide trimethylated at lysine 27, H3K27me3 (21–44), P68431
Assay: peptide or protein array

fold smaller Kd^app than PcTF: 2 fold
B1: Pc2TF, bivalent polycomb-based transcription factor with the flexible linker (GGGGS)4, Q9HC52 1-62; Q9HC52 1-62 (designed binder)
chain: MELSAVGERVFAAEALLKRRIRKGRMEYLVKWKGWSQKYSTWEPEENILDARLLAAFEERERGGGGSGGGGSGGGGSGGGGSMELSAVGERVFAAEALLKRRIRKGRMEYLVKWKGWSQKYSTWEPEENILDARLLAAFEERER
modifications: not checked
